B1: duplex DNA control (dsDNA)
DNA 1: CTTGAGCTTGAGCTCAAGCTCAAG
DNA 2: CTTGAGCTTGAGCTCAAGCTCAAG

Biological target: DHX9 helicase (human, UniProt Q08211 1-1270)
Assay: EMSA; 5 mM AMP-PNP, 10 mM Mg2+; 100 nM DHX9, 100 nM DNA; EMSA: 20 mM Tris-HCl pH 7.5, 50 mM NaCl, 1 mM DTT, 1 mM EDTA, 10 mM MgCl2, 5% glycerol, 5 mM AMP-PNP, 30 C 30 min; MBN assay: 10 mM Tris-HCl pH 7.5, 5 mM DTT, 100 ug/ml BSA, 5 mM MgCl2, 5 mM ATP or AMP-PNP, 10% glycerol, 35 C
Conditions: protein: recombinant, tags: His, label: 5'-32P

Sequence of DHX9 helicase (Q08211 whole entry): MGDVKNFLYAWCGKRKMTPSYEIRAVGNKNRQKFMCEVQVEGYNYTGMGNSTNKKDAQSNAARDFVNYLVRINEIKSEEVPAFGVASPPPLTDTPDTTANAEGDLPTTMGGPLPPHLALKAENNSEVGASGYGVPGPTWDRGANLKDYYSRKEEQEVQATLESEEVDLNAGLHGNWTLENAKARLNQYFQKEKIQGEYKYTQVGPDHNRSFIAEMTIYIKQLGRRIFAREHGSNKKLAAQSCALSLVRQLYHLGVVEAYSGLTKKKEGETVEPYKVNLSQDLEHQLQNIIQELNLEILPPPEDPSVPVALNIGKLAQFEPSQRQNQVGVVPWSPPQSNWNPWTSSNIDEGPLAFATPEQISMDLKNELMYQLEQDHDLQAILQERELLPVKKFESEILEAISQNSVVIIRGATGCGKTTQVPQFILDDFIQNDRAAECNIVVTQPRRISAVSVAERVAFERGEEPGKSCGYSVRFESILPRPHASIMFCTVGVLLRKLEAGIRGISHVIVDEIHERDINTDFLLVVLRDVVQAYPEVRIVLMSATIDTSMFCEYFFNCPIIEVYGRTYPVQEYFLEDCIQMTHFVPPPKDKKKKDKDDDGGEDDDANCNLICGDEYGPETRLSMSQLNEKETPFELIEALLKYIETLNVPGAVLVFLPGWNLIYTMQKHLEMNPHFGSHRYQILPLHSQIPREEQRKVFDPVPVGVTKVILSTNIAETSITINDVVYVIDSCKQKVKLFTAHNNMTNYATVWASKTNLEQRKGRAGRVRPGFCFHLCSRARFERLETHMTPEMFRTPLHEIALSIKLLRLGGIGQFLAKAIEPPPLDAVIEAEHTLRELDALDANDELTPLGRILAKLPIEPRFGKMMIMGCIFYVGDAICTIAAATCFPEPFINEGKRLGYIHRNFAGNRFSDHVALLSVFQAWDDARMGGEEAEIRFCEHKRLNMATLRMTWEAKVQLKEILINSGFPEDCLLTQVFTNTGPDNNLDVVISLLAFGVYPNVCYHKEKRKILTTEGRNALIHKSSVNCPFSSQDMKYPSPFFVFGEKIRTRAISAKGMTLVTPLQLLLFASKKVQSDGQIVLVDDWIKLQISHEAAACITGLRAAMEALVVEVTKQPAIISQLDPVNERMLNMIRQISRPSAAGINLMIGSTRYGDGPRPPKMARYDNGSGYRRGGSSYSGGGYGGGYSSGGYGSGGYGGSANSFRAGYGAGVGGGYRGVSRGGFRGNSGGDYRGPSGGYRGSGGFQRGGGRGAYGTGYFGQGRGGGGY

Binder	binding result (intramolecular triplex with 3' overhang, single strand, pre-annealed with 10 mM Mg2+)	binding result (self-complementary, 2 copies of one strand, blunt, hairpin may also form)
CCCCTCCCTTTTTGGGAGGGGCGCTTATGGGGAGGGCAGTCGAGCG (structured_DNA) [c-MYC-related intramolecular triplex with 3' overhang (H-DNA)]	binds	
B1		no binding
